Experimental data as given in publication PMC3861047, “Role of Tomato Lipoxygenase D in Wound-Induced Jasmonate Biosynthesis and Plant Immunity to Insect Herbivores”.

Target: MBP-SlMYC2 (Solanum lycopersicum, UniProt A0A3Q7HRZ6 1-689)
Assay: EMSA; LightShift Chemiluminescent EMSA kit (Thermo Scientific), acrylamide gel; buffer, salt, pH and temperature not given
Settings: protein: recombinant; tags: N-terminal MBP (pMAL-c2); chain copies: 2; label: biotin (3' end per Methods); blunt

Chain of MBP-SlMYC2 (A0A3Q7HRZ6 whole entry): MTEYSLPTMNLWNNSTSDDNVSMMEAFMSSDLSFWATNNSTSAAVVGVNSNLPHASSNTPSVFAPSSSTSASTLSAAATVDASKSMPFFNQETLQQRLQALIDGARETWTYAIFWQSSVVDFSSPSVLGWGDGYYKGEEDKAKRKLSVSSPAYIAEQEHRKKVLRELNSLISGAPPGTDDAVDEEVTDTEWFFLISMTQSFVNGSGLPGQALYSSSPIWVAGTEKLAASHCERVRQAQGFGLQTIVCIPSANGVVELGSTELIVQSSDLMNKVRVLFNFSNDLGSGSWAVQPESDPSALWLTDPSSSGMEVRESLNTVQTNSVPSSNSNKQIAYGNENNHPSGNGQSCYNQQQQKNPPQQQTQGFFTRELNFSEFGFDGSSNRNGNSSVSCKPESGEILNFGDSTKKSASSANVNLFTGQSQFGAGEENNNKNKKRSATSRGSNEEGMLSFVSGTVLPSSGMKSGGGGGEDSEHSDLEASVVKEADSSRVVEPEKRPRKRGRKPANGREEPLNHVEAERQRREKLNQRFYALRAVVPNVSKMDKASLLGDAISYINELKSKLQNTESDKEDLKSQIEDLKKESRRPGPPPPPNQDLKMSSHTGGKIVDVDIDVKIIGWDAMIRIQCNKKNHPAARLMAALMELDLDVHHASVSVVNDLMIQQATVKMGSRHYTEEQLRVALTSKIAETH

B1: TomLoxDpro probe-369 (dsDNA)
DNA 1: TCGGTTTGACTAAATTCCACCATGTGTAAAGCTTGCACTAAAATGAAACC
DNA 2: GGTTTCATTTTAGTGCAAGCTTTACACATGGTGGAATTTAGTCAAACCGA
B1: binds.
